Literature values in publication PMC2879597.

Biological target: hIL-10/sIL-10R1 complex (Homo sapiens) (UniProt P22301)
Sequence (P22301 19-178, chain 1 of 2): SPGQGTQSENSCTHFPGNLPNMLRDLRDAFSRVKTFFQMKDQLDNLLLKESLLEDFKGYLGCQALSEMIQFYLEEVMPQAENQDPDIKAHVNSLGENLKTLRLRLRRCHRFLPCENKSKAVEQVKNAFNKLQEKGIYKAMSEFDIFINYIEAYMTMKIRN
Sequence (Q13651 22-235, chain 2 of 2, further chain): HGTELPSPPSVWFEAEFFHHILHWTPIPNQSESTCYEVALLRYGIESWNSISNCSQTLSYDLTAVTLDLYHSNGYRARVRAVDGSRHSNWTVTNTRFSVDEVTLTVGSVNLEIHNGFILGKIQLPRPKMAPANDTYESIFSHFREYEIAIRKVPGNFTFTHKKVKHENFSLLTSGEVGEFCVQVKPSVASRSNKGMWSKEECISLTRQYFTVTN

Sequence of sIL-10R2 ECD (Q08334 20-220): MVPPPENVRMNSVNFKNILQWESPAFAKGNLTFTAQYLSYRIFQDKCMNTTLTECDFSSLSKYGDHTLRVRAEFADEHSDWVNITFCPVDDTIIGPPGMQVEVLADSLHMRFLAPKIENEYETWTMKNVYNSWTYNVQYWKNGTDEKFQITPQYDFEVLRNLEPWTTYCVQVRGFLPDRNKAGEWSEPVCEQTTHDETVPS

Kd: 250 µM
Substance: sIL-10R2 ECD (from UniProt Q08334)
